PMC13082707, “Role of the C-terminal modules of Klebsiella phage KP32 receptor-binding protein gp38 in protein and phage functionality” (PLOS Pathogens, 2026)

Columns and labels:
[1] = target: KP32gp38_LIN-CBM-LEC (Klebsiella phage KP32); assay: SEC-MALS; SEC-MALLS of selected KP32gp38 variants to assess the molecular weight of their oligomeric state, buffer and concentrations not told
[2] = target: KP32gp38_Δ(LIN-CBM) (Klebsiella phage KP32); assay: as above
[3] = target: KP32gp38_ΔCBM (Klebsiella phage KP32); assay: as above
[4] = target: KP32gp38_LEC (Klebsiella phage KP32); assay: as above
[5] = target: KP32gp38_CP-E_K11gp0043_LIN-CBM-LEC (Klebsiella phage KP32 | Klebsiella phage K11); assay: as above
[6] = target: GFP_KP32gp38_LIN-CBM-LEC (Klebsiella phage KP32); assay: as above
[7] = target: KP32gp38_CP-E-LIN_K11gp0043_CBM-LEC (Klebsiella phage KP32 | Klebsiella phage K11); assay: as above
[8] = target: KP32gp38_ΔLEC (Klebsiella phage KP32)
[9] = target: KP32gp38_ΔLEC (Klebsiella phage KP32); assay: SEC-MALS; SEC-MALLS of selected KP32gp38 variants to assess the molecular weight of their oligomeric state, buffer and concentrations not told
[10] = target: the molecule itself; assay: as above

KP32gp38_LIN-CBM-LEC (domain or fragment)
stoichiometry N [1]: 3

KP32gp38_Δ(LIN-CBM) (domain or fragment)
stoichiometry N [2]: 3

KP32gp38_ΔCBM (domain or fragment)
stoichiometry N [3]: 3

KP32gp38_LEC (domain or fragment)
stoichiometry N [4]: > 25

KP32gp38_CP-E_K11gp0043_LIN-CBM-LEC
stoichiometry N [5]: 3

GFP_KP32gp38_LIN-CBM-LEC (domain or fragment)
stoichiometry N [6]: 3

KP32gp38_CP-E-LIN_K11gp0043_CBM-LEC
stoichiometry N [7]: 3

KP32gp38_ΔLEC (domain or fragment)
enzymatic activity (halo formation on K21/KL163 lawns) compared to the WT [8]: 1000 fold | percent dimers [9]: 10% | stoichiometry N [9]: 2

B1: KP32gp38_WT, receptor-binding protein 2 (RBP2) of Klebsiella phage KP32 (natural protein, UniProt D1L2X1 1-576, looked up)
chain: MLDNFNQPKGSTIGVLKDGRTIQEAFDSLPRLESFSGSTATDKLRAAITLGVSEVAIGPVEGNGGRPYEFGDVVIPYPLRIVGCGSQGINVTKGTVLKRSAGASFMFHFTGEGQAQRPMGGGLFNINLNGDTATALGDIIKVTQWSYFKANNCAFQNMAGWGIRLKDVMESNISGNLFRRLGGPSGGGILFDDVRSAVTDNVNNLHIEDNTFALMSGPWIGSTANSNPDLIWIVRNKFEFDGTPAAPNTVDSYVLDFQQLSRAFIQDNGFTHFTTERNRYVGVLRVGATAVGTIKFEDNLLFACESAGLIAGGIVVSRGNVNNQGSATTAIKQFTNTSSKLCKLERVINVQSNGNVSVGQQILPDGYINMAELPGNTRLPSEYDADGETTSVLRVPANTQVRQWSVPKMYKDGLTVTKVTVRAKGAAAGAILSLQSGSTVLSTKSIDAGVWKNYVFYVKANQLQETLQLRNTGTADVLADGMVFGKVDYIDWDFAIAPGTLAAGAKYTTPNQSYLDVAGMRVQAVSIPMFDGPTTGLQVWVEATSANGSFVVVMKNDTGSELVTTVTRCRVRAFVS
notes: KP32gp38 (RBP2, capsule depolymerase/tailspike) of Klebsiella phage KP32; domains CP-E-LIN-CBM-LEC; Expressed from pVTD3 (C-terminal His-tag); also called KP32gp38 WT depolymerase; source: E. coli BL21(DE3), purified (His GraviTrap or HisPur Ni-NTA)
stoichiometry N [10]: 3
